These are literature values, as cited in paper PMC4769797.

The target of this data set is VEGFR1 (Homo sapiens) (UniProt P17948).
UniProt P17948, sequence (P17948 27-1338): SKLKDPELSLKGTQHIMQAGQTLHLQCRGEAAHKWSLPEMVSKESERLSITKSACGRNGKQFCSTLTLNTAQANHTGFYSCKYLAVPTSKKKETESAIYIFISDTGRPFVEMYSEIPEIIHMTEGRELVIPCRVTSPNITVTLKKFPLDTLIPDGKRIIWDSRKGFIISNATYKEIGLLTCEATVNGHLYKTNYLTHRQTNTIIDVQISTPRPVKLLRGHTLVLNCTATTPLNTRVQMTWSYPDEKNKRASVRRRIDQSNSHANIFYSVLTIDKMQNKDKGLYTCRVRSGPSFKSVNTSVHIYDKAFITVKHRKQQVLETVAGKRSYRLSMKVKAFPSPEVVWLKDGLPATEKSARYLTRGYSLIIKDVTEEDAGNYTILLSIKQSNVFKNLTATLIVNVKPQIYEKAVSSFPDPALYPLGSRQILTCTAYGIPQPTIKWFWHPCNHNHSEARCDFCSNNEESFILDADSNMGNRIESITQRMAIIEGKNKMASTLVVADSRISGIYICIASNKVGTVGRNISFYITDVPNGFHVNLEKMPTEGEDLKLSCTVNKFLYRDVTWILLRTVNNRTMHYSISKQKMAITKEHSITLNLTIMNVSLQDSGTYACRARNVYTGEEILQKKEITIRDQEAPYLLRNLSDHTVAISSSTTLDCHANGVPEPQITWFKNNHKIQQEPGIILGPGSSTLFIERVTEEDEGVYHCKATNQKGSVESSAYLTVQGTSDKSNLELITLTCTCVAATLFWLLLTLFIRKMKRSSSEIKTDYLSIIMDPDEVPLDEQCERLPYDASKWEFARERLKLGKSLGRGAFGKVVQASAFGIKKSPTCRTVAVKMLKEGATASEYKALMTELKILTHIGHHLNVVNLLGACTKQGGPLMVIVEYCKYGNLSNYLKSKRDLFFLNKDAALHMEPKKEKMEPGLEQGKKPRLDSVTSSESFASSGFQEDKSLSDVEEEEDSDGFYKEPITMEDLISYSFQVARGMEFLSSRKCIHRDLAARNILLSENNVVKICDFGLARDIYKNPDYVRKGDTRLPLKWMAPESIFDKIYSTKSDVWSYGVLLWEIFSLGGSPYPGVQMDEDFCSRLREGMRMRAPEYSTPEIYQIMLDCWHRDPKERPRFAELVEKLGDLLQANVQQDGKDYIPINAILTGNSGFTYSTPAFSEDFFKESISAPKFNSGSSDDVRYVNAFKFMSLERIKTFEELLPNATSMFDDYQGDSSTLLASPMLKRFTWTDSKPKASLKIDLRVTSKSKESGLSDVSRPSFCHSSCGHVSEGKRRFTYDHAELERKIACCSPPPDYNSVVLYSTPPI

For the substance VEGFA (from UniProt P15692), the Kd was 0.1 nM.
